# Source: patent US20240094220A1 (NORTHEASTERN UNIVERSITY, published 2024)
# Molecular target: T1, mouse PD-L1 on the surface of DC 2.4 dendritic cells (mouse, UniProt Q9EP73 19-290)
# T1 construct: whole, on cells; also called Programmed Death-Ligand 1
# Assay: flow cytometry on DC 2.4 cells, purified Nb detected with fluorophore-conjugated anti-FLAG antibody
# Experimental: While the majority of anti-PD-L1 and anti-CTLA-4 Nbs are currently produced intracellularly in E. coli, the lengthy processes of lysing bacteria and removing endotoxins may dramatically increase costs and demand a centralized facility for production. […] Of note, in the shake-flask expression system, anti-PD-L1 and anti-CTLA-4 Nbs can be secreted into the supernatant of B. subtilis culture at ˜15 mg per liter of culture. To further confirm that these Nbs remain functional following secretion and purification, the mouse dendritic cell line DC 2.4 was chosen because it is known to constitutively express the immunoinhibitory receptor PD-L1 on the cell surface (FIG. 5, Panel A), and it was also validated the expression of PD-L1 by a commercial antibody specific for mouse PD-L1. […] The stained samples were analyzed by flow cytometry and fluorescence microscopy—results of flow cytometry indicated the specific binding of purified anti-PD-L1 Nbs and no binding for the anti-caffeine Nb control in comparison to the unstained sample (FIG. 5, Panel B). […] To further test whether the purification step could be bypassed by directly using bacterial supernatant, 200 μl of the original B. subtilis supernatant containing the anti-PD-L1 Nb was applied to stain ˜one million DC 2.4 cells for fluorescence microscopy.
# T1 sequence (Q9EP73 19-290): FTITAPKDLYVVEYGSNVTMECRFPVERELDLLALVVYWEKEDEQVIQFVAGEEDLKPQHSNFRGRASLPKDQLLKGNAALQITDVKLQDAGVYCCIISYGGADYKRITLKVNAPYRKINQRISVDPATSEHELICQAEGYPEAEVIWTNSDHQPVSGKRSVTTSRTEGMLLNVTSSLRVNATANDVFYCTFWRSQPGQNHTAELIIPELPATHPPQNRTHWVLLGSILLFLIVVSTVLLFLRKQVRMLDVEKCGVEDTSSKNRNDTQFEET
binder,measurement,value
"anti-caffeine nanobody secreted from B. subtilis (CBD fusion, with FLAG epitope) (VHH, not shown: large carriers, Negative control in the PD-L1 staining; also called anti-caffeine Nb; CBD-anti-caffeine Nb) VHH: QVQLVESGGGLVQAGGSLRLSCTASGRTGTIYSMAWFRQAPGKEREFLATVGWSSGITYYMDSVKGRFTISRDKGKNTVYLQMDSLKPEDTAVYYCTATRAYSVGYDYWGQGTQVTVSS",binding result,no binding
